Measurements from patent US20250154277A1 (CONCEPT TO MEDICINE BIOTECH, published 2025).
Like-named read-outs stand apart in the source and are kept apart here.

T1: human 5T4-His protein (human, UniProt Q13641 32-355)
T1 construct: also called recombinant 5T4 protein (human 5T4-his tag); human 5T4 protein; not shown: His tag
T1 sequence (looked up): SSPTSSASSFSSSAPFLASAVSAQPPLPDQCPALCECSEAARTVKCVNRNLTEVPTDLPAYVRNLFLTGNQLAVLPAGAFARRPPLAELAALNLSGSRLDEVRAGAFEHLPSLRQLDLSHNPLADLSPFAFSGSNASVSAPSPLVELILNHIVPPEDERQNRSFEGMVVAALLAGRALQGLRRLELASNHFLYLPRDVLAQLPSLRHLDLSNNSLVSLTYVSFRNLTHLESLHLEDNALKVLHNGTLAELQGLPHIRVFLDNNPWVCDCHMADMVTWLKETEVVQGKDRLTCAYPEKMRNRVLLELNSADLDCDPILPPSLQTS


How the values were obtained:
[1] = biological target: T1, human 5T4-His protein; assay: SPR Biacore, Protein A capture
Method: The binding of the 14G12 humanized antibodies to recombinant 5T4 protein (human 5T4-his tag) was tested with Biacore using a capture method. The mAbs were captured using Protein A chip. Serial dilution of human 5T4-his tag protein was injected over captured antibody for 120 s-180 s at a flow rate of 30 μl/min. The antigen was allowed to dissociate for 360 s-1000 s. All the experiments were carried out on a Biacore T200. Data analysis was carried out using the Biacore T200 evaluation software.

[2] = biological target: T1, human 5T4-His protein; assay: ELISA, coated 5T4-His
Method: To evaluate the binding activity of 14G12 humanized antibodies to human 5T4, the 14G12 chimeric antibody along with 14G12 humanized mAbs were subjected to ELISA test.
Briefly, microtiter plates were coated with human 5T4-His protein at 1 μg/ml in PBS, 100 μl/well at 4° C. overnight, then blocked with […]. Serial dilutions of antibodies were added to each well and incubated for 1 hour at 37° C. The plates were washed with PBS/Tween and then incubated with Goat Anti-Human IgG-HRP for 30 mins at 37° C. After washing, the plates were developed with TMB substrate and analyzed by spectrophotometer at OD 450 nm. As shown in FIG. 10 and Table 6, most of the humanized antibodies bound to human 5T4 at high activity.

[3] = biological target: T1, human 5T4-His protein; assay: ELISA, coated 5T4-His; remark: listed apart in the source
Method: To evaluate the binding activity of 393E9 humanized antibodies to human 5T4, the 393E9 chimeric antibody (393E9-C) along with 393E9 humanized mAbs were subjected to ELISA test.
Briefly, microtiter plates were coated with human 5T4-His protein at 1 μg/ml in PBS, 100 μl/well at 4° C. overnight, then blocked with 150 μl/well of 1% BSA. 4-fold dilutions of antibodies starting from 20 nM were added to each well and incubated for 1 hour at 37° C. The plates were washed with PBS/Tween and then incubated with Goat Anti-Human IgG-HRP for 30 mins at 37° C. After washing, the plates were developed with TMB substrate and analyzed by spectrophotometer at OD 450 nm. As shown in FIG. 12 and Table 9, most of the humanized antibodies bound to human 5T4 with high activity.

Kd [1] [nM]	koff [1] [s⁻¹]	kon [1] [M⁻¹ s⁻¹]	EC50 [2] [µg/mL]	EC50 [3] [nM]	Binder
2.17	0.000523	241000	0.015		Hu14G12-11 (antibody, V domains shown, humanized) VH: EVQLVQSGAEVKKPGATVKISCKVSGYAFSSSWMNWVKQAPGKGLEWIGRIYREDGHTNYNGKFKGRATITADTSTTTAYMELSSLRSEDTAVYFCANGGAMDYWGQGTLVTVSS VL: DIQMTQSPSSLSASVGDRVTISCRASQDISNYLNWYQQKPGKAVKLLIYYTSRLHSGVPSRFSGSGSGTDFTFTISSLQPEDIATYFCQQDNTLPWTFGGGTKLEIK
6.12	0.00121	198000	0.018		Hu14G12-13 (antibody, V domains shown, humanized) VH: EVQLVQSGAEVKKPGATVKISCKASGYAFSSSWMNWVKQAPGKGLEWIGRIYREDGHTNYNGKFKGRATITADTSTTTAYMELSSLRSEDSAVYFCANGGAMDYWGQGTLVTVSS VL: DIQMTQSPSSLSASVGDRVTITCRASQDISNYLNWYQQKPGKAPKLLIYYTSRLHSGVPSRFSGSGSGTDFTFTISSLQPEDIATYYCQQDNTLPWTFGGGTKLEIK
2.39	0.000655	274000	0.019		Hu14G12-12 (antibody, V domains shown, humanized) VH: EVQLVQSGAEVKKPGATVKISCKVSGYAFSSSWMNWVKQAPGKGLEWIGRIYREDGHTNYNGKFKGRATITADTSTTTAYMELSSLRSEDTAVYFCANGGAMDYWGQGTLVTVSS VL: DIQMTQSPSSLSASVGDRVTISCRASQDISNYLNWYQQKPGKTVKLLIYYTSRLHSGVPSRFSGSGSGTDYTFTISSLQPEDIATYFCQQDNTLPWTFGGGTKLEIK
1.85	0.000499	269000	0.017		Hu14G12-16 (antibody, V domains shown, humanized) VH: EVQLVQSGAEVKKPGATVKISCKASGYAFSSSWMNWVKQAPGKGLEWIGRIYREDGHTNYNGKFKGRATITADTSTTTAYMELSSLRSEDSAVYFCANGGAMDYWGQGTLVTVSS VL: DIQMTQSPSSLSASVGDRVTISCRASQDISNYLNWYQQKPGKTVKLLIYYTSRLHSGVPSRFSGSGSGTDYTFTISSLQPEDIATYFCQQDNTLPWTFGGGTKLEIK
4.55	0.00178	392000	0.31		Hu14G12-18 (antibody, V domains shown, humanized) VH: QVQLVQSGAEVKKPGSSVKVSCKASGGTFSSSWMNWVKQAPGQGLEWIGRIYREDGHTNYNGKFKGKATLTADKSTSTAYMELSSLRSEDTAVYFCANGGAMDYWGQGTTVTVSS VL: DIQMTQSPSSLSASVGDRVTITCRASQDISNYLNWYQQKPGKVPKLLIYYTSRLHSGVPSRFSGSGSGTDYTLTISSLQPEDVATYFCQQDNTLPWTFGGGTKLEIK
3.19	0.000837	262000	0.014		Hu14G12-15 (antibody, V domains shown, humanized) VH: EVQLVQSGAEVKKPGATVKISCKASGYAFSSSWMNWVKQAPGKGLEWIGRIYREDGHTNYNGKFKGRATITADTSTTTAYMELSSLRSEDSAVYFCANGGAMDYWGQGTLVTVSS VL: DIQMTQSPSSLSASVGDRVTISCRASQDISNYLNWYQQKPGKAVKLLIYYTSRLHSGVPSRFSGSGSGTDFTFTISSLQPEDIATYFCQQDNTLPWTFGGGTKLEIK
				0.18	393E9_hVH1_hVL1 (antibody, V domains shown, humanized) VH: EVQLVESGGGLVQPGGSLRLSCAASGFTFTDYYMSWVRQAPGKGLEWVGFIRNKGNGYTTENSASVKGRFTISRDNSKSTLYLQMNSLRAEDTAVYYCARYRGNPHYAMDYWGQGTLVTVSS VL: DIVLTQSPDSLAVSLGERATINCRASESVEFYGTSFLQWYQQKPGQPPKLLIYGASNVESGVPDRFSGSGSGTDFTLTISSLQAEDIAVYFCQQSRKVPSTFGGGTKVEIK
				0.085	393E9_hVH1_hVL3 (antibody, V domains shown, humanized) VH: EVQLVESGGGLVQPGGSLRLSCAASGFTFTDYYMSWVRQAPGKGLEWVGFIRNKGNGYTTENSASVKGRFTISRDNSKSTLYLQMNSLRAEDTAVYYCARYRGNPHYAMDYWGQGTLVTVSS VL: DIQLTQSPSSLSASVGDRVTITCRASESVEFYGTSFLQWYQQKPGKAPKLLIYGASNVESGVPSRFSGSGSGTDFTLTISSLQPEDIATYFCQQSRKVPSTFGGGTKVEIK
				0.16	393E9_hVH1_hVL2 (antibody, V domains shown, humanized) VH: EVQLVESGGGLVQPGGSLRLSCAASGFTFTDYYMSWVRQAPGKGLEWVGFIRNKGNGYTTENSASVKGRFTISRDNSKSTLYLQMNSLRAEDTAVYYCARYRGNPHYAMDYWGQGTLVTVSS VL: EIVLTQSPATLSVSPGERATLSCRASESVEFYGTSFLQWYQQKPGQAPRLLIYGASNVESGIPARFSGSGSGTEFTLTISSLQSEDIAVYFCQQSRKVPSTFGGGTKVEIK
				0.14	393E9_hVH6_hVL4 (antibody, V domains shown, humanized) VH: EVQLVESGGGLVQPGGSLRLSCAASGFTFTDYYMSWVRQAPGKGLEWVGFIRNKGNGYTTENSASVKGRFTISRDNAKSSLYLQMNSLRAEDTAVYYCARYRGNPHYAMDYWGQGTLVTVSS VL: DIVLTQSPLSLPVTPGEPASISCRASESVEFYGTSFLQWYLQKPGQSPQLLIYGASNVESGVPDRFSGSGSGTDFTLKISRVEAEDIGVYFCQQSRKVPSTFGGGTKVEIK
				0.16	393E9_hVH5_hVL1 (antibody, V domains shown, humanized) VH: EVQLVESGGGLVQPGRSLRLSCTASGFTFTDYYMSWVRQAPGKGLEWVGFIRNKGNGYTTENSASVKGRFTISRDNSKSILYLQMNSLKTEDTAVYYCARYRGNPHYAMDYWGQGTLVTVSS VL: DIVLTQSPDSLAVSLGERATINCRASESVEFYGTSFLQWYQQKPGQPPKLLIYGASNVESGVPDRFSGSGSGTDFTLTISSLQAEDIAVYFCQQSRKVPSTFGGGTKVEIK
				0.13	393E9_hVH4_hVL1 (antibody, V domains shown, humanized) VH: EVQLVESGGGLVQPGGSLRLSCAASGFTFTDYYMSWVRQAPGKGLEWVGFIRNKGNGYTTENSASVKGRFTISRDNSKSSLYLQMNSLKTEDTAVYYCARYRGNPHYAMDYWGQGTLVTVSS VL: DIVLTQSPDSLAVSLGERATINCRASESVEFYGTSFLQWYQQKPGQPPKLLIYGASNVESGVPDRFSGSGSGTDFTLTISSLQAEDIAVYFCQQSRKVPSTFGGGTKVEIK
				0.2	393E9_hVH3_hVL2 (antibody, V domains shown, humanized) VH: QVQLVESGGGVVQPGGSLRLSCAASGFTFTDYYMSWVRQAPGKGLEWVGFIRNKGNGYTTENSASVKGRFTISRDNSKSTLYLQMNSLRAEDTAVYYCARYRGNPHYAMDYWGQGTLVTVSS VL: EIVLTQSPATLSVSPGERATLSCRASESVEFYGTSFLQWYQQKPGQAPRLLIYGASNVESGIPARFSGSGSGTEFTLTISSLQSEDIAVYFCQQSRKVPSTFGGGTKVEIK
				0.27	393E9_hVH5_hVL2 (antibody, V domains shown, humanized) VH: EVQLVESGGGLVQPGRSLRLSCTASGFTFTDYYMSWVRQAPGKGLEWVGFIRNKGNGYTTENSASVKGRFTISRDNSKSILYLQMNSLKTEDTAVYYCARYRGNPHYAMDYWGQGTLVTVSS VL: EIVLTQSPATLSVSPGERATLSCRASESVEFYGTSFLQWYQQKPGQAPRLLIYGASNVESGIPARFSGSGSGTEFTLTISSLQSEDIAVYFCQQSRKVPSTFGGGTKVEIK
				0.11	393E9_hVH6_hVL1 (antibody, V domains shown, humanized) VH: EVQLVESGGGLVQPGGSLRLSCAASGFTFTDYYMSWVRQAPGKGLEWVGFIRNKGNGYTTENSASVKGRFTISRDNAKSSLYLQMNSLRAEDTAVYYCARYRGNPHYAMDYWGQGTLVTVSS VL: DIVLTQSPDSLAVSLGERATINCRASESVEFYGTSFLQWYQQKPGQPPKLLIYGASNVESGVPDRFSGSGSGTDFTLTISSLQAEDIAVYFCQQSRKVPSTFGGGTKVEIK
				0.16	393E9_hVH4_hVL4 (antibody, V domains shown, humanized) VH: EVQLVESGGGLVQPGGSLRLSCAASGFTFTDYYMSWVRQAPGKGLEWVGFIRNKGNGYTTENSASVKGRFTISRDNSKSSLYLQMNSLKTEDTAVYYCARYRGNPHYAMDYWGQGTLVTVSS VL: DIVLTQSPLSLPVTPGEPASISCRASESVEFYGTSFLQWYLQKPGQSPQLLIYGASNVESGVPDRFSGSGSGTDFTLKISRVEAEDIGVYFCQQSRKVPSTFGGGTKVEIK
